# Laboratory results as given in patent US20220362394A1 (SUTRO BIOPHARMA, published 2022).
# T1: human BCMA-Fc (human, UniProt Q02223 1-54)
# T1 construct: Bought from R&D Systems; also called huBCMA-Fc; not shown: Fc part not described
# T1 sequence: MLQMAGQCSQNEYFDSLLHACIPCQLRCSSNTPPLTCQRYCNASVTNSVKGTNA
# T2: human BCMA on cells (human, UniProt Q02223 1-184)
# T2 construct: also called hBCMA; BCMA on NCI-H929, ARP-1, OPM-2, U266B1, MM.1S, RPMI-8226 cells
# T2 sequence: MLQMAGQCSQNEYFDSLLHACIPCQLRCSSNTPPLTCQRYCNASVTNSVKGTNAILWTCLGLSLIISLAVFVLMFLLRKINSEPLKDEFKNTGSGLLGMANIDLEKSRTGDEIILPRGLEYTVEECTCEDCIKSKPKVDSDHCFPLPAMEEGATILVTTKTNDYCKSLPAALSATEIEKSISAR
# Tests used:
# [1] = biological target: T3, cyno BCMA-Fc (cynomolgus monkey, UniProt Q02223 1-54 (human entry)); assay: ELISA, coated cynoBCMA-Fc
# T3 construct: Custom protein production; also called cynomolgus BCMA-Fc; not shown: Fc part not described
# [2] = biological target: T1, human BCMA-Fc; assay: ELISA, coated huBCMA-Fc
# [3] = biological target: T1, human BCMA-Fc; assay: SPR Biacore, antibody captured, 25 C
# Method: Anti-Fab or anti-Fc polyclonal antibodies were immobilized onto a CM5 chip (GE Life Sciences) using amine coupling chemistry (from Amine Coupling Kit, GE Life Sciences). The immobilization steps were carried out at a flow rate of 25 μL/min in 1×HBS-EP+ buffer (GE Life Sciences; 10× Stock diluted before use). The sensor surfaces were activated for 7 min with a mixture of NHS (0.05 M) and EDC (0.2 M). The anti-Fab or anti-Fc antibodies were injected over all 4 flow cells at a concentration of 25 μg/ml in 10 mM sodium acetate, pH 4.5, for 7 min. Ethanolamine (1 M, pH 8.5) was injected for 7 min to block any remaining activated groups.
# Off-rate and kinetic binding experiments were performed at 25° C. using 1×HBS-EP+ buffer. […] After capturing ligand (antibody) on the anti-Fab or anti-Fc surface, the analyte (human BCMA-Fc, cyno BCMA-Fc, or human BCMA from R&D Systems, custom protein production, or Sigma Aldrich, respectively) was bound for 180 seconds, followed by a 600 second dissociation phase at a flow rate of 50 μL/min. Between each ligand capture and analyte binding cycle, regeneration was carried out using 2 injections of 10 mM glycine pH 2.0 for 30 seconds at 30 μL/min, followed by a 30 second buffer wash step.
# The data was fit with the Biacore T200 Evaluation software, using a 1-1 Langmuir binding model. KD (affinity, nM) was determined as a ratio of the kinetic rate constants calculated from the fits of the association and dissociation phases.
# [4] = biological target: T2, human BCMA on cells; assay: FACS, NCI-H929 cells
# Method: (§1) Variants for which sufficient protein was purified in secondary screening were tested in a fluorescence-activated cell sorting (FACS) cell-binding assay. […] 6-12 point dilutions of anti-BCMA variants starting from concentrations of about 100-200 nM antibody were dispensed into each well using a BioMekFX (Beckman Coulter). Cells were then incubated on ice for 1 hr, washed with FACS buffer and incubated for 1 hr on ice with […] FACS buffer containing 2.5 μg/ml Alexa647-conjugated Goat Anti-Human IgG dispensed using BioMekFX (Beckman Coulter). Cells were then washed 2× with FACS buffer and fixed for 10 minutes in […] PBS with 2% paraformaldehyde (PFA) prior to fluorescence detection. Samples were acquired using a Beckton Dickinson LSRII FACS. Geometric Mean Fluorescence Intensity of BCMA antibody binding was analyzed using FlowJo® software (Tree Star, Inc.).
# [5] = biological target: cynomolgus BCMA on cells (cynomolgus monkey, UniProt Q02223 1-184 (human entry)); assay: FACS, 293T-cynoBCMA cells
# Chain of cynomolgus BCMA on cells (Q02223 other isoform, or with tags, fused parts or gaps): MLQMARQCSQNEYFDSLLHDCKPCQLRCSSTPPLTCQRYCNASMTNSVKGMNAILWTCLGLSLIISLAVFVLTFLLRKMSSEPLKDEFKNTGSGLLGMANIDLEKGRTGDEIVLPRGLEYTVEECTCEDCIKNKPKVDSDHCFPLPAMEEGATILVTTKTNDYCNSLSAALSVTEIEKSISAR
# Method: as §1
Binder,Bmax [1],EC50 [1] [nM],Bmax [2],EC50 [2] [nM],Kd [3] [nM],koff [3] [s⁻¹],kon [3] [M⁻¹ s⁻¹],Bmax [4] [MFI],Kd [4] [nM],Bmax [5] [MFI],Kd [5] [nM]
"2290-A02 (antibody, V domains shown, also called Antibody 22) VH: EVQLVESGGGLVQPGGSLRLSCAASGFNISTRWIHWVRQAPGKGLEWVGVITPSAGYTHYADSVKGRFTISAGTSKNTAYLQMNSLRAEDTAVYYCARDLGSRYWVGVFDYWGQGTLVTVSS VL: not shown",4.47e+06,0.4,4.87e+06,0.4,0.567,0.000131,231000,33600,4.9,70300,2.3
"2290-C08 (antibody, V domains shown, also called Antibody 21) VH: EVQLVESGGGLVQPGGSLRLSCAASGFNIQPYWIHWVRQAPGKGLEWVGVITPPSGYTYYADSVKGRFTISADTSKNTAYLQMNSLRAEDTAVYYCARDWGVGYWVGFSDYWGQGTLVTVSS VL: not shown",4.14e+06,0.2,4.33e+06,0.3,0.378,0.000252,666000,37800,11,71000,2.3
"2290-D02 (antibody, V domains shown, also called Antibody 18) VH: EVQLVESGGGLVQPGGSLRLSCAASGFNISSYWIHWVRQAPGKGLEWMGVITPAAGYTYYADSVKGRFTISADTSKNTAYLQMNSLRAEDTAVYYCARDLGHRYWVGVFDYWGQGTLVTVSS VL: not shown",3.91e+06,0.2,4.54e+06,0.3,0.949,0.000277,292000,33600,19.2,75800,3.5
"2291-A04 (antibody, V domains shown, also called Antibody 28) VH: EVQLVESGGGLVQPGGSLRLSCAASGFNISSYGIHWVRQAPGKGLEWVGFISPYDGYTEYADSVKGRFTISAGTSKNTAYLQMNSLRAEDTAVYYCARDFNDRYFTYVLDYWGQGTLVTVSS VL: not shown",4.23e+06,0.2,4.6e+06,0.23,0.716,0.000349,487000,33900,5,63800,1.2
"2291-E06 (antibody, V domains shown, also called Antibody 25) VH: EVQLVESGGGLVQPGGSLRLSCAASGFNISPYTIHWVRQAPGKGLEWVAHIFPSGGYTDYADSVKGRFTISADTSKNTAYLQMNSLRAEDTAVYYCARDFYDRYATYVLDYWGQGTLVTVSS VL: not shown",3.36e+06,0.13,4.11e+06,0.21,0.763,0.000357,468000,34400,5.8,68300,1.4
"2137-A05 (antibody, V domains shown, also called Antibody 14) VH: EVQLVESGGGLVQPGGSLRLSCAASGFNINNSYIHWVRQAPGKGLEWVGWIYPYSGYTNYADSVKGRFTISADTSKNTAYLQMNSLRAEDTAVYYCARDYGPWYGTGVLDYWGQGTLVTVSS VL: not shown",2.2e+06,419,3.3e+06,0.52,2.36,0.00332,1.41e+06,2690,10,1910,18.3
"2288-A03 (antibody, V domains shown, also called Antibody 15) VH: EVQLVESGGGLVQPGGSLRLSCAASGFNINNSWIHWVRQAPGKGLEWVGWIYPYIGFTEYADSVKGRFTISADTSKNTAYLQMNSLRAEDTAVYYCARDYDLRYLTGVLDYWGQGTLVTVSS VL: not shown",3.02e+06,0.57,4.24e+06,0.56,0.557,0.000516,927000,16300,4.8,46800,1.8
